# How the values were obtained:
# [1] = target: T1, human TSH receptor (full length), coated on tubes (human, UniProt P16473 22-764); test: competition with 125I-K1-18 IgG on TSHR coated tubes; 1 µg/mL, diluted in assay buffer
# T1 construct: TSHR coated tubes as described in WO2004/050708A2; Exact preparation on the tubes is not detailed here; also called thyroid stimulating hormone receptor
# Method: (§1) Binding inhibition assays were carried out using TSHR coated tubes as described in WO2004/050708A2. […] After aspiration, the tubes were washed and 100 μL of ¹²⁵I-labelled protein (5×10⁴ cpm) added and incubated for 1 hour at room temperature with shaking. The tubes were then aspirated, washed and counted in a gamma counter. Inhibition of labelled protein binding was calculated as 100×[1−(cpm bound in the presence of test material/cpm bound in the presence of control material)].
# [2] = target: T1, human TSH receptor (full length), …; test: competition with 125I-K1-18 IgG on TSHR coated tubes; 3 µg/mL, diluted in assay buffer
# Method: as §1
# [3] = target: T1, human TSH receptor (full length), …; test: competition with 125I-K1-18 IgG on TSHR coated tubes; 10 µg/mL, diluted in assay buffer
# Method: as §1
# [4] = target: T1, human TSH receptor (full length), …; test: competition with 125I-K1-18 IgG on TSHR coated tubes; 30 µg/mL, diluted in assay buffer
# Method: as §1
# [5] = target: T1, human TSH receptor (full length), …; test: competition with 125I-K1-18 IgG on TSHR coated tubes; 0.1 µg/mL, diluted in assay buffer
# Method: as §1
# [6] = target: T1, human TSH receptor (full length), …; test: competition with 125I-K1-18 IgG on TSHR coated tubes; 0.3 µg/mL, diluted in assay buffer
# Method: as §1
# [7] = target: T1, human TSH receptor (full length), …; test: competition with 125I-K1-18 IgG on TSHR coated tubes; 1 µg/mL, diluted in HBD serum pool
# Method: as §1
# [8] = target: T1, human TSH receptor (full length), …; test: competition with 125I-K1-18 IgG on TSHR coated tubes; 100 µg/mL, diluted in assay buffer
# Method: as §1
# [9] = target: T1, human TSH receptor (full length), …; test: competition with 125I-K1-18 IgG on TSHR coated tubes; 3 µg/mL, diluted in HBD serum pool
# Method: as §1
# [10] = target: T1, human TSH receptor (full length), …; test: competition with 125I-K1-18 IgG on TSHR coated tubes; 0.01 µg/mL, diluted in assay buffer
# Method: as §1
# [11] = target: T1, human TSH receptor (full length), …; test: competition with 125I-K1-18 IgG on TSHR coated tubes; 0.03 µg/mL, diluted in assay buffer
# Method: as §1
# [12] = target: T1, human TSH receptor (full length), …; test: competition with 125I-K1-18 IgG on TSHR coated tubes; 10 µg/mL, diluted in HBD serum pool
# Method: as §1
# [13] = target: T1, human TSH receptor (full length), …; test: competition with 125I-K1-18 IgG on TSHR coated tubes; 30 µg/mL, diluted in HBD serum pool
# Method: as §1
# [14] = target: T1, human TSH receptor (full length), …; test: competition with 125I-K1-18 IgG on TSHR coated tubes; 0.001 µg/mL, diluted in assay buffer
# Method: as §1
# [15] = target: T1, human TSH receptor (full length), …; test: competition with 125I-K1-18 IgG on TSHR coated tubes; 0.003 µg/mL, diluted in assay buffer
# Method: as §1
# [16] = target: T1, human TSH receptor (full length), …; test: competition with 125I-K1-18 IgG on TSHR coated tubes; 0.1 µg/mL, diluted in HBD serum pool
# Method: as §1
# [17] = target: T1, human TSH receptor (full length), …; test: competition with 125I-K1-18 IgG on TSHR coated tubes; 0.3 µg/mL, diluted in HBD serum pool
# Method: as §1
# [18] = target: T1, human TSH receptor (full length), …; test: competition with 125I-K1-18 IgG on TSHR coated tubes; 100 µg/mL, diluted in HBD serum pool
# Method: as §1
# [19] = target: T1, human TSH receptor (full length), …; test: competition with 125I-K1-18 IgG on TSHR coated tubes; 0.01 µg/mL, diluted in HBD serum pool
# Method: as §1
# [20] = target: T1, human TSH receptor (full length), …; test: competition with 125I-K1-18 IgG on TSHR coated tubes; 0.03 µg/mL, diluted in HBD serum pool
# Method: as §1
# [21] = target: T1, human TSH receptor (full length), …; test: competition with 125I-K1-18 IgG on TSHR coated tubes; 0.001 µg/mL, diluted in HBD serum pool
# Method: as §1
# [22] = target: T1, human TSH receptor (full length), …; test: competition with 125I-K1-18 IgG on TSHR coated tubes; 0.003 µg/mL, diluted in HBD serum pool
# Method: as §1
binder,measurement,setting,value
"K1-70 Fab (Fab, V domains shown) VH: EVQLVQSGAEVKKPGQSLKISCKASGYSLTDNWIGWVRQKPGKGLEWMGIIYPGDSDTRYSPSFQGQVTISADKSINTAYLQWSSLKASDTAIYYCVGLDWNYNPLRYWGPGTLVTVSS VL: QSVLTQPPSVSAAPGQKVTISCSGSSSDIGSNYVSWYQQFPGTAPKLLIYDNNKRPSAIPDRFSGSKSGTSATLGITGLQTGDEADYYCGTWDSRLGIAVFGGGTQLTVLG",Inhibition of binding (%),[1],91%
same,Inhibition of binding (%),[2],91.1%
same,Inhibition of binding (%),[3],92.4%
same,Inhibition of binding (%),[4],92.2%
same,Inhibition of binding (%),[5],87.6%
same,Inhibition of binding (%),[6],89.6%
same,Inhibition of binding (%),[7],92.1%
same,Inhibition of binding (%),[8],93.3%
same,Inhibition of binding (%),[9],92.8%
same,Inhibition of binding (%),[10],25.6%
same,Inhibition of binding (%),[11],68.8%
same,Inhibition of binding (%),[12],92.6%
same,Inhibition of binding (%),[13],91.8%
same,Inhibition of binding (%),[14],-3.9%
same,Inhibition of binding (%),[15],4.1%
same,Inhibition of binding (%),[16],75.2%
same,Inhibition of binding (%),[17],88.1%
same,Inhibition of binding (%),[18],92.5%
same,Inhibition of binding (%),[19],16.2%
same,Inhibition of binding (%),[20],35%
same,Inhibition of binding (%),[21],-3.2%
same,Inhibition of binding (%),[22],3.7%

# Source: US20110300138A1 (published 2011)
